Test results as given in article PMC3393791.

Biological target: T1, Full-length human TIP47/perilipin-3 (human), O60664
T1 chain: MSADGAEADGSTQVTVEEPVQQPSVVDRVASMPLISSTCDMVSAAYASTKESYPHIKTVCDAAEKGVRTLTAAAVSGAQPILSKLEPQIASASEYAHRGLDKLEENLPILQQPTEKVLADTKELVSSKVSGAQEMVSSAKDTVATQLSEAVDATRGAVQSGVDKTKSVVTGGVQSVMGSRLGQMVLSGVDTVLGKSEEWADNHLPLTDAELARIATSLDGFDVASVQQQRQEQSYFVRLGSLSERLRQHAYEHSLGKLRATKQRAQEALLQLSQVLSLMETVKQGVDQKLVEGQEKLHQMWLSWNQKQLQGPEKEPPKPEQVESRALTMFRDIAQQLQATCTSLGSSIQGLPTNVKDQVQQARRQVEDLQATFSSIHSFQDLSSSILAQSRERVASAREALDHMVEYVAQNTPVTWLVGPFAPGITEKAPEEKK
Assay: SEC-MALS
Settings: remark: other sources report otherwise

stoichiometry N: 2
B1: Full-length human TIP47/perilipin-3, O60664 1-434 (natural protein)
chain: MSADGAEADGSTQVTVEEPVQQPSVVDRVASMPLISSTCDMVSAAYASTKESYPHIKTVCDAAEKGVRTLTAAAVSGAQPILSKLEPQIASASEYAHRGLDKLEENLPILQQPTEKVLADTKELVSSKVSGAQEMVSSAKDTVATQLSEAVDATRGAVQSGVDKTKSVVTGGVQSVMGSRLGQMVLSGVDTVLGKSEEWADNHLPLTDAELARIATSLDGFDVASVQQQRQEQSYFVRLGSLSERLRQHAYEHSLGKLRATKQRAQEALLQLSQVLSLMETVKQGVDQKLVEGQEKLHQMWLSWNQKQLQGPEKEPPKPEQVESRALTMFRDIAQQLQATCTSLGSSIQGLPTNVKDQVQQARRQVEDLQATFSSIHSFQDLSSSILAQSRERVASAREALDHMVEYVAQNTPVTWLVGPFAPGITEKAPEEKK
